Test [1] has as its target T1, Zika virus SPH2015 nonstructural protein 1 (NS1) (Zika virus (strain SPH2015)).
T1 chain: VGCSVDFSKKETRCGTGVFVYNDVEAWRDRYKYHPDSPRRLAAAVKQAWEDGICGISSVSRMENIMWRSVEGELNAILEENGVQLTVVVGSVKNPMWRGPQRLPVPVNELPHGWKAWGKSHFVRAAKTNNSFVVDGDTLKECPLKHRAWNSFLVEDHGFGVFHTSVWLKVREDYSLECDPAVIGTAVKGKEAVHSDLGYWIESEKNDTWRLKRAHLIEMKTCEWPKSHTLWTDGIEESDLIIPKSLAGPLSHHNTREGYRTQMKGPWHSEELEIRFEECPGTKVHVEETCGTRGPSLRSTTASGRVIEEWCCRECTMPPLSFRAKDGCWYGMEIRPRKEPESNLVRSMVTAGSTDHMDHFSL
In words: BLI; NS1 saturated with Nb32-Strep. A general note: BLI is a label-free optical method that tracks binding on a fibre tip over time.

Test [2] concerns the target Zika virus SPH2015 nonstructural protein 1 (NS1) (Zika virus (strain SPH2015)). In words: BLI.
Test [3] deals with T1, Zika virus SPH2015 nonstructural …. The test is described as follows: BLI.
The target is the same in test [4]. In words: BLI; GST-VHH immobilized, NS1 in solution.
Test [5] has the same target. The test is described as follows: BLI; NS1 immobilized, GST-VHH in solution.

B1: ZIKV_NbD6 with C-terminal StrepTag-II (VHH)
VHH: EVQLVESGGGSVQPGGSLRLSCAASGFAFSHYAMRWVRQAPGKGLEWVSVINSDGEDTWYADSVKGRFTISRDNAKNTLYLQMNSLKPEDTGVYYCAIGRTHDTKGQGTQVTVSS
The term Kd denotes the concentration at which binding is half-saturated. Low values mean a tighter complex, high ones a looser complex. As a reminder, the koff is the first-order rate constant of dissociation. A low value points to a long-lived complex. As to B1, the Kd in test [1] was 5.9 nM. In test [2], this molecule returned a dissociation constant Kd of 8 nM, a fold increase of koff against the GST-tagged nanobody of 26 fold and a fold increase of kon against the GST-tagged nanobody of 3.6 fold. This molecule also returned a koff in test [3] of 0.002 s⁻¹.

B2: GST-tagged ZIKV_Nb32 (VHH)
VHH: EVQLVESGGGLVQAGGSLRLSCAVSGIDFSRYAITWNRQSPGNQRREWVATLPPADTTVYADAVKGRFTISRDNTKNTVYLQMNSLKPEDTAVYYCATSPRIHNWGQGTQVTVS
Consider B2, for which the off-rate (koff) was below 1e-07 s⁻¹ in test [4] and 2e-05 s⁻¹ in test [5]. For the same molecule, the Kd in test [2] turned out to be 0.035 nM. For the same molecule, in test [2], the fold increase of koff against the orientation with the nanobody immobilised is above 100 fold.

B3: ZIKV_Nb32 with C-terminal StrepTag-II (VHH)
VHH: EVQLVESGGGLVQAGGSLRLSCAVSGIDFSRYAITWNRQSPGNQRREWVATLPPADTTVYADAVKGRFTISRDNTKNTVYLQMNSLKPEDTAVYYCATSPRIHNWGQGTQVTVSS
In test [2], B3 registered a Kd of 0.16 nM, a fold increase of koff against the GST-tagged nanobody of 15 fold and a fold increase of kon against the GST-tagged nanobody of 3.2 fold. The koff in test [3] was 0.00029 s⁻¹.

B4: GST-tagged ZIKV_NbD6 (VHH)
VHH: EVQLVESGGGSVQPGGSLRLSCAASGFAFSHYAMRWVRQAPGKGLEWVSVINSDGEDTWYADSVKGRFTISRDNAKNTLYLQMNSLKPEDTGVYYCAIGRTHDTKGQGTQVTVS
B4: the dissociation rate constant (koff) in test [4] was below 1e-07 s⁻¹; in test [5], 7.6e-05 s⁻¹.

Source of the values: article PMC11934133 (2025).
